Source: article doi:10.1101/2024.04.26.591257 (bioRxiv, 2024)
Each block holds one molecule with its values, some of them ahead of it.

Key:
[1] = target: WOX5-mV(N)/PLT3-mV(C) heterodimer (split mVenus donor) (Arabidopsis thaliana) (UniProt Q8H1D2); assay: split reporter
[2] = target: BRAVO-mV (BRASSINOSTEROIDS AT VASCULAR AND ORGANIZING CENTRE fused to mVenus) (Arabidopsis thaliana) (UniProt Q6R053); assay: FRET or BRET
[3] = target: BES1D-mV (BES1D fused to mVenus) (Arabidopsis thaliana) (UniProt Q9LN63); assay: FRET or BRET
[4] = target: T1, TPL-mV (TOPLESS fused to mVenus) (Arabidopsis thaliana, UniProt Q94AI7 1-1131); assay: FRET or BRET
T1 sequence (looked up): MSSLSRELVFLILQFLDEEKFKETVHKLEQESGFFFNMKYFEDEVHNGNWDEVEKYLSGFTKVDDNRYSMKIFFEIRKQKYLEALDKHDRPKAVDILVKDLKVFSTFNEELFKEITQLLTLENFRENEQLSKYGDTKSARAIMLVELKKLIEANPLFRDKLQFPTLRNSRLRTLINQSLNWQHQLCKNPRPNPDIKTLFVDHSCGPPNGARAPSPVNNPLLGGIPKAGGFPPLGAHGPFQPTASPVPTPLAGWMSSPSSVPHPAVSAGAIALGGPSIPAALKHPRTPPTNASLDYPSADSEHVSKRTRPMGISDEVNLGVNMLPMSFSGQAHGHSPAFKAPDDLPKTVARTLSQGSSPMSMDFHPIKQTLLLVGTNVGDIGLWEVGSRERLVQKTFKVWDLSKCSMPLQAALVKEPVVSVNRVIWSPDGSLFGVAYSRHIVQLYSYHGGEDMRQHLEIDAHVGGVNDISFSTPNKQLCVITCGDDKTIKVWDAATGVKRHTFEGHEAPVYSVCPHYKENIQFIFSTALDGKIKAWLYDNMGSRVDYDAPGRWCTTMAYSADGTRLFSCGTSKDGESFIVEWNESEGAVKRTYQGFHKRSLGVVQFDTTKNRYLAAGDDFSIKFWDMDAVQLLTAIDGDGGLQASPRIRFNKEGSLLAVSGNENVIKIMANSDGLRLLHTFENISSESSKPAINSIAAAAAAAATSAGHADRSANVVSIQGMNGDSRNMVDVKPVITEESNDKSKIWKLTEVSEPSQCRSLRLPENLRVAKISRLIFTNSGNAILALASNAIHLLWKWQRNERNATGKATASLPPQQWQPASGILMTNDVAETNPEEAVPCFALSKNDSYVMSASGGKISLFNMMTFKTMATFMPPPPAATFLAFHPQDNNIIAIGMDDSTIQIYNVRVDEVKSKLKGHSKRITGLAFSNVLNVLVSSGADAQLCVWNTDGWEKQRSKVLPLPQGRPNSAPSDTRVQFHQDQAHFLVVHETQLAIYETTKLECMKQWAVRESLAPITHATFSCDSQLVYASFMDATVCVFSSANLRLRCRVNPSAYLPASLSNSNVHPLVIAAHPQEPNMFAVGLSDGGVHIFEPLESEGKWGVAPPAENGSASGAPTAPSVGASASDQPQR

[5] = target: T2, BRAVO-mV(N)/PLT3-mV(C) heterodimer (split mVenus donor) (Arabidopsis thaliana, UniProt Q6R053 1-323; Q52QU2 1-581); assay: split reporter
T2 sequence (looked up) 1: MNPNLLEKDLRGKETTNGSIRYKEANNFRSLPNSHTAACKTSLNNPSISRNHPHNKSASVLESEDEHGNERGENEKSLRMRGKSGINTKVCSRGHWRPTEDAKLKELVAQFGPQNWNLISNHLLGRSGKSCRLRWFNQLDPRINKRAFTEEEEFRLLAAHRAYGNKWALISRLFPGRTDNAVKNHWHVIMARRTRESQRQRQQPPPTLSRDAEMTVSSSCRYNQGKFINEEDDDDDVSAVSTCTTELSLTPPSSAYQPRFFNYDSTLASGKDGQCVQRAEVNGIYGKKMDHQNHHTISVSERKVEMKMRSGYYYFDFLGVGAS
T2 sequence (looked up) 2: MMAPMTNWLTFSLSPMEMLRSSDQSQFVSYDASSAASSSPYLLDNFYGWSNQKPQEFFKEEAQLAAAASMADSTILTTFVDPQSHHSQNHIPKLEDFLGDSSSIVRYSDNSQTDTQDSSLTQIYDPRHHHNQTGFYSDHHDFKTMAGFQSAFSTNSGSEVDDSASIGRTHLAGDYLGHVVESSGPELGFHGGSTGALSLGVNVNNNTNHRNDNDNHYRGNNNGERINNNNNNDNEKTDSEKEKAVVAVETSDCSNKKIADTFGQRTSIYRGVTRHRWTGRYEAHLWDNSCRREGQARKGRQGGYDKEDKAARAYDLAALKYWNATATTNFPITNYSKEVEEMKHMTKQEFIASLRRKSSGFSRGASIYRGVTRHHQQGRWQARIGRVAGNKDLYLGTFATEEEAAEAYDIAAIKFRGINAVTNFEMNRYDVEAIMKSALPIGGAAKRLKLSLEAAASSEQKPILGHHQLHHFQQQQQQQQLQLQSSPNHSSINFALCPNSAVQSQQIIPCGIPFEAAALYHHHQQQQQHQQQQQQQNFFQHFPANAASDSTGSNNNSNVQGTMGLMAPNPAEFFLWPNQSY

[6] = target: T3, BRAVO-mV (BRASSINOSTEROIDS AT VASCULAR AND ORGANIZING CENTRE fused to mVenus) (Arabidopsis thaliana, UniProt Q6R053 1-323); assay: FRET or BRET
T3 sequence (looked up): T2 sequence (looked up) 1

[7] = target: T4, WOX5-mV(N)/PLT3-mV(C) heterodimer (split mVenus donor) (Arabidopsis thaliana, UniProt Q8H1D2 1-182; Q52QU2 1-581); assay: split reporter
T4 sequence (looked up) 1: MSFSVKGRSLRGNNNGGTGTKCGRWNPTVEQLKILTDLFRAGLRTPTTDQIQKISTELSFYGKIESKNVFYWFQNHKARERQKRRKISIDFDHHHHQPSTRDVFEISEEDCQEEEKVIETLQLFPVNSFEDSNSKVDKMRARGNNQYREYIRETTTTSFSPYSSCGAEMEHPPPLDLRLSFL
T4 sequence (looked up) 2: T2 sequence (looked up) 2

BES1D-mV (BES1D fused to mVenus) (Arabidopsis thaliana), sequence (Q9LN63 whole entry, the tested form may be a part): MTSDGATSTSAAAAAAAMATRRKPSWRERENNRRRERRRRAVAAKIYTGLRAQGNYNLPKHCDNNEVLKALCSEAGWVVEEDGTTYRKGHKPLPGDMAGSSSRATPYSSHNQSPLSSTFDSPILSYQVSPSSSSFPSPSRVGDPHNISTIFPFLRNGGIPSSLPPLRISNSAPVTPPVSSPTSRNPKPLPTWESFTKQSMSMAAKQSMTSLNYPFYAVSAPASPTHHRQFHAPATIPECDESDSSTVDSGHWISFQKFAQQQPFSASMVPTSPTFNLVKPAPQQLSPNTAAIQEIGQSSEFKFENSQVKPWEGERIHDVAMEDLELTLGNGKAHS

binding [%] (BiFC-FRET) [1]: 18.7%
binding [%] (FRET-FLIM) [2]: 27.4%
Molecule: BES1D-mCh (BRI1-EMS-SUPPRESSOR 1, BES1D form, fused to mCherry) (from UniProt Q9LN63 1-335) (natural protein)

binding [%] (FRET-FLIM) [2]: 11.7%
Molecule: PLT3ΔPrD-mCh (PLT3 with its prion-like domains deleted, fused to mCherry) (from UniProt Q9ZNS0 1-508) (natural protein)

binding [%] (FRET-FLIM) [3]: 16.9%
binding [%] (FRET-FLIM) [4]: 13.5 ± 4.3%
B1: PLT3-mCh (PLETHORA 3 fused to mCherry) (natural protein, Arabidopsis thaliana, UniProt Q52QU2 1-581, looked up)
chain: T2 sequence (looked up) 2

binding [%] (BiFC-FRET) [5]: 29.8 ± 10.6%
binding [%] (FRET-FLIM) [6]: 22.4 ± 14.1%
B2: WOX5-mCh (WUSCHEL-RELATED HOMEOBOX 5 fused to mCherry) (natural protein, Arabidopsis thaliana, UniProt Q8H1D2 1-182, looked up)
chain: T4 sequence (looked up) 1

binding [%] (BiFC-FRET) [7]: 36.3 ± 10.7%
B3: BRAVO-mCh (BRAVO fused to mCherry) (natural protein, Arabidopsis thaliana, UniProt Q6R053 1-323, looked up)
chain: T2 sequence (looked up) 1

binding [%] (BiFC-FRET) [7]: 23.3 ± 8.3%
binding [%] (BiFC-FRET) [5]: 21.1 ± 8.3%
binding [%] (FRET-FLIM) [6]: 26.7 ± 9.8%
B4: TPL-mCh (TOPLESS fused to mCherry) (natural protein, Arabidopsis thaliana, UniProt Q94AI7 1-1131, looked up)
chain: T1 sequence (looked up)
